B1: GroES (L49W) (natural protein, E. coli, UniProt P0A6F9 1-97, looked up)
chain: MNIRPLHDRVIVKRKEVETKSAGGIVLTGSAAAKSTRGEVLAVGNGRIWENGEVKPLDVKVGDIVIFNDGYGVKSEKIDNEEVLIMSESDILAIVEA
notes: GroES, E. coli co-chaperonin subunit (10.5 kDa as printed); tryptophan mutant used for quantification; also called GroES 7-mer; source: E. coli BL21(DE3), purified (StrepTactin, 3C cleavage, Superdex 200, GSTrap); not shown: double StrepII, N-terminal, cleaved

Assays:
[1] = molecular target: RNC_(1-510mut): stalled 70S ribosome:nascent chain complex with β-galactosidase 1-510 carrying I141N and G353D (E. coli); test: co-sedimentation; RNC with GroEL, no GroES and no ATP/BeFx; pellet quantified by iBAQ mass spectrometry, normalised to the average of the ribosomal proteins; n = 3
[2] = molecular target: RNC_(1-510mut): stalled 70S ribosome:nascent chain complex with β-galactosidase 1-510 carrying I141N and G353D (E. coli); test: co-sedimentation; RNC first incubated with GroEL and GroES (20 min, 30 °C), then 1 mM ATP, 1 mM BeSO4, 10 mM NaF (10 min, 30 °C); 35% sucrose cushion; pellet by immunoblot (GroEL, GroES, S2) and iBAQ mass spectrometry
[3] = molecular target: T1, Ribosomal stalk protein L7/L12 (E. coli, UniProt P0A7K2 1-121); test: cross-linking; XL-MS: RNC_(1-510mut) with 5 µM GroEL and 10 µM GroES, then 1 mM ATP, 1 mM BeSO4, 10 mM NaF; 1 mM DSBU 1 h at 25 °C; conditions: both partners purified
T1 construct: ribosomal protein L7/L12, E. coli, as part of the ribosome; Cross-linked while part of the 70S ribosome or RNC; also called stalk complex; source: endogenous, in E. coli 70S ribosomes (bought: NEB) and in RNCs purified from E. coli

Molecule	stoichiometry N (GroEL subunits per ribosome) [1]	stoichiometry N (GroEL subunits per ribosome) [2]	binding result [3]
GroEL (V381W, A384W, V387W) (from UniProt P0A6F5 2-525) (natural protein)	9.8	6.7	–
B1	–	–	binds
